From patent publication US11919930B2, “Odorant receptor co-receptor” (Sumitomo Chemical Company, Limited, priority 2016, dated 2024)
“Also recorded” adds a separate entry of the source.

B1: Aa(NT-TM4)AmORCO: chimeric co-receptor: NT to TM4 from Aedes co-receptor, IC2 to C-terminal domain from Apis co-receptor; SEQ ID NO:108 (protein)
chain: MNVQPTKYHGLVLDLMPNIRLMQGFGHFLFRYVNGPVLIRKLYSWWNLIMILLQYFAIMGNLVMNTGDVNELTANTITTLFFTHSVTKFIYVAVNSEHFYRTLGIWNQPNSHSLFAESDARYHSIALAKMRKLLVMVMVTTVLSVVAWITITFFGDSVKNVFDKETNETYTVEIPRLPIKAWYPWDAMSGVPYFFSFIYQAYFLLFSMCQANLADVMFCSWLLFTCEQLQHLKNIMKPLMEFSATLDTVVPNSGELFKAGSAEQPKEQEPLPPVTPPQGENMLDMDLRGIYSNRTDFTTTFRPTAGMTFNGGVGPNGLTKKQEMLVRSAIKYWVERHKHIVRLVTAIGDAYGVALLLHMLTTTITLTLLAYQATKIHAVDTYAASVVGYLLYSLGQVFMLCIFGNRLIEESSSVMEAAYSCHWYDGSEEAKTFVQIVCQQCQKAMSISGAKFFTVSLDLFASVLGAMVTYFMVLVQLK
B2: Aa(TM1-4Dm)AaORCO: chimeric co-receptor: first to fourth transmembrane domains from Drosophila co-receptor, other domains from Aedes co-receptor; SEQ ID NO:82 (protein)
chain: MNVQPTKYHGLVLDLMPNIRLMQGFGHFLFRYVNGPVLIKKVYSSVHLVFLLMQFTFILVNMAMNTGDVNELTANTITTLFFTHCITKFIYLAVNSEHFYRTLGIWNQPNSHSLFAESDARYHSIALAKMRKLFFLVMLTTVASATAWTTITFFGDSVKNVFDKETNETYTVEIPRLPIKAWYPWDAMHGMFYMISFAFQIYYVLFSMIHSNLCDVMFCSWLIFACEQLQHLKGIMRPLMELSATLDTYRPNSAALFRVASAGSKSELILNEEKDPDTKDFDLNGIYNSKADWGAQFRAPSTLQTFGDNGINGNPNGLTKKQELMVRSAIKYWVERHKHVVRLVSAIGETYGAALLLHMLTSTIKLTLLAYQATKIDALNVYGLTVIGYLVYALAQVFLFCIFGNRLIEESSSVMEAAYSCHWYDGSEEAKTFVQIVCQQCQKAMTISGAKFFTVSLDLFASVLGAVVTYFMVLVQLK
B3: Dm(NT-TM4)AaORCO: chimeric co-receptor: NT to TM4 (residues 1-234) from Drosophila co-receptor, IC2 to C-terminal domain from Aedes co-receptor; SEQ ID NO:71 (protein)
chain: MTTSMQPSKYTGLVADLMPNIRAMKYSGLFMHNFTGGSAFMKKVYSSVHLVFLLMQFTFILVNMALNAEEVNELSGNTITTLFFTHCITKFIYLAVNQKNFYRTLNIWNQVNTHPLFAESDARYHSIALAKMRKLFFLVMLTTVASATAWTTITFFGDSVKMVVDHETNSSIPVEIPRLPIKSFYPWNASHGMFYMISFAFQIYYVLFSMIHSNLCDVMFCSWLIFACEQLQHLKGIMRPLMELSATLDTYRPNSAALFRVASAGSKSELILNEEKDPDTKDFDLNGIYNSKADWGAQFRAPSTLQTFGDNGINGNPNGLTKKQELMVRSAIKYWVERHKHVVRLVSAIGETYGAALLLHMLTSTIKLTLLAYQATKIDALNVYGLTVIGYLVYALAQVFLFCIFGNRLIEESSSVMEAAYSCHWYDGSEEAKTFVQIVCQQCQKAMTISGAKFFTVSLDLFASVLGAVVTYFMVLVQLK
B4: Dm(792)AaORCO: chimeric co-receptor: N-terminus to residue 264 from Drosophila co-receptor, residue 265 to C-terminus from Aedes co-receptor; SEQ ID NO:74 (protein)
chain: MTTSMQPSKYTGLVADLMPNIRAMKYSGLFMHNFTGGSAFMKKVYSSVHLVFLLMQFTFILVNMALNAEEVNELSGNTITTLFFTHCITKFIYLAVNQKNFYRTLNIWNQVNTHPLFAESDARYHSIALAKMRKLFFLVMLTTVASATAWTTITFFGDSVKMVVDHETNSSIPVEIPRLPIKSFYPWNASHGMFYMISFAFQIYYVLFSMIHSNLCDVMFCSWLIFACEQLQHLKGIMKPLMELSASLDTYRPNSAALFRSLSAGSKSELILNEEKDPDTKDFDLNGIYNSKADWGAQFRAPSTLQTFGDNGINGNPNGLTKKQELMVRSAIKYWVERHKHVVRLVSAIGETYGAALLLHMLTSTIKLTLLAYQATKIDALNVYGLTVIGYLVYALAQVFLFCIFGNRLIEESSSVMEAAYSCHWYDGSEEAKTFVQIVCQQCQKAMTISGAKFFTVSLDLFASVLGAVVTYFMVLVQLK
B5: Dm(NT-636)AaORCO: chimeric co-receptor: N-terminus to residue 212 from Drosophila co-receptor, residue 213 to C-terminus from Aedes co-receptor; SEQ ID NO:78 (protein)
chain: MTTSMQPSKYTGLVADLMPNIRAMKYSGLFMHNFTGGSAFMKKVYSSVHLVFLLMQFTFILVNMALNAEEVNELSGNTITTLFFTHCITKFIYLAVNQKNFYRTLNIWNQVNTHPLFAESDARYHSIALAKMRKLFFLVMLTTVASATAWTTITFFGDSVKMVVDHETNSSIPVEIPRLPIKSFYPWNASHGMFYMISFAFQIYYVLFSMIHANLADVMFCSWLLFTCEQLQHLKGIMRPLMELSATLDTYRPNSAALFRVASAGSKSELILNEEKDPDTKDFDLNGIYNSKADWGAQFRAPSTLQTFGDNGINGNPNGLTKKQELMVRSAIKYWVERHKHVVRLVSAIGETYGAALLLHMLTSTIKLTLLAYQATKIDALNVYGLTVIGYLVYALAQVFLFCIFGNRLIEESSSVMEAAYSCHWYDGSEEAKTFVQIVCQQCQKAMTISGAKFFTVSLDLFASVLGAVVTYFMVLVQLK
B6: Dm(TM1-4Aa)AaORCO: chimeric co-receptor: amino-terminal domain, EC1, IC1, EC2 from Drosophila co-receptor, other domains from Aedes co-receptor; SEQ ID NO:86 (protein)
chain: MTTSMQPSKYTGLVADLMPNIRAMKYSGLFMHNFTGGSAFMRKLYSWWNLIMILLQYFAIMGNLVLNAEEVNELSGNTITTLFFTHSVTKFIYVAVNQKNFYRTLNIWNQVNTHPLFAESDARYHSIALAKMRKLLVMVMVTTVLSVVAWITITFFGDSVKMVVDHETNSSIPVEIPRLPIKSFYPWNASSGVPYFFSFIYQAYFLLFSMCQANLADVMFCSWLLFTCEQLQHLKGIMRPLMELSATLDTYRPNSAALFRVASAGSKSELILNEEKDPDTKDFDLNGIYNSKADWGAQFRAPSTLQTFGDNGINGNPNGLTKKQELMVRSAIKYWVERHKHVVRLVSAIGETYGAALLLHMLTSTIKLTLLAYQATKIDALNVYGLTVIGYLVYALAQVFLFCIFGNRLIEESSSVMEAAYSCHWYDGSEEAKTFVQIVCQQCQKAMTISGAKFFTVSLDLFASVLGAVVTYFMVLVQLK

System: odorant receptor AaOR8
Assay: Aequorin luminescence measurement in HEK293FT cells co-expressing AaOR8 and a co-receptor, 1-octen-3-ol added
Type: cell-based
Details: 1-octen-3-ol 10^-4 to 10^-10 M; for intensity of response (relative amount of luminescence) to 1-octen-3-ol: compared to cells that expressed original AaORCO or DmORCO
Method: HEK293FT cells (purchased from invitrogen, Inc.) were inoculated into 10-cm Petri dishes at a concentration of 3×10^6 cells/Petri dish, and the cells were cultured in DMEM medium containing 10% FBS (manufactured by Nacalai Tesque, Inc.) for about 24 hours under the conditions of 37° C. and 5% CO2. 3 μg of any one of the co-receptor expression plasmids produced, 1.5 μg of any one of the odorant receptor expression plasmids produced, and 8 μg of Aequorin expression plasmid were mixed with 12.5 μL of Plus reagent and 31.25 μL of LIPOFECTAMINE LTX (manufactured by Invitrogen, Inc.), and the mixture was maintained for 30 minutes. Subsequently this liquid mixture was transfected into the above-mentioned cells. After 4 hours from the initiation of transfection, the cells were inoculated onto a 96-well plate at a concentration of 9×10^4 cells/well, and the cells were cultured in DMEM medium containing 10% FBS (manufactured by Nacalai Tesque, Inc.) for about 24 hours under the conditions of 37° C. and 5% CO2. Thereby, transformed cells having a co-receptor expression plasmid, an odorant receptor expression plasmid, and an aequorin expression plasmid transiently incorporated therein were obtained.
Aequorin is activated when hound to a calcium ion, and oxidizes a substrate such as coelenterazine, thus emitting light. […] Therefore, whether an odorant receptor complex functions an ion channel as a result of addition of a substance to be detected, can be measured from the change in the amount of luminescence.
A culture fluid of the transformed cells was removed, and the medium was exchanged with Hanks-HEPES (20 mM, pH 7.4) including Assay buffer (0.5 μM coelenterazine h (manufactured by Promega Corporation) and 0.3% BSA. culture system was left to stand for another 4 hours at room temperature. Subsequently, a substance to be detected, which corresponded to an odorant receptor, was added to the cell culture using FLEXSTATION 3 (manufactured by Molecular Devices, LLC), and at the same time, the amount of luminescence of the cells was measured. As a control substance, the amount of luminescence in the cells to which dimethyl sulfoxide had been added was designated as 1, and the amount or luminescence of cells to which the substance to be detected was added was calculated as a relative value.
(§1) Cells into which: • an expression plasmid of odorant receptor AaOR8; • an expression plasmid of any one of co-receptor AaORCO or DmORCO, or various chimeric co-receptors Dm-AaORCO having different positions of recombination [Dm(NT-EC1)AaORCO, Dm(NT-TM3)AaOROC, Dm(NT-TM4)AaORCO, Dm(NT-TM5)AaORCO, or Dm(NT-TM6)AaORCO]; and • an aequorin expression plasmid had been incorporated were used, and the amount of luminescence was measured as explained above. 1-Octen-3-ol was used as a substance to be detected, and 1-octen-3-ol was added to the culture fluid at a concentration of 10^−4 M, 10^−5 M, 10^−6 M, 10^−7 M, 10^−8 M, 10^−9 M, or 10^−10 M. The results are presented in FIG. 1.
as §1, with “AmORCO” for “AaORCO”, “Dm-AmORCO” for “Dm-AaORCO”, “[Dm(NT-TM3)AmOROC, Dm(NT-TM4)AmORCO, Dm(NT-TM5)AmORCO,” for “[Dm(NT-EC1)AaORCO, Dm(NT-TM3)AaOROC, Dm(NT-TM4)AaORCO, Dm(NT-TM5)AaORCO,”, “Dm(NT-TM6)AmORCO];” for “Dm(NT-TM6)AaORCO];”, “2. […]” for “1.”

Molecule	intensity of response (relative amount of luminescence) to 1-octen-3-ol	other results
B1	–	response (relative amount of luminescence) to 1-octan-3-ol (compared to cells that expressed original AaORCO or AmORCO): responded more strongly to 1-octan-3-ol
B2	the intensity of response to 1-octen-3-ol was decreased	–
B3	responded more strongly to 1-octen-3-ol; also recorded: the intensity of response to 1-octen-3-ol was higher	–
B4	–	intensity of response to 1-octen-3-ol (compared to cells that expressed original AaORCO): the intensity of response to 1-octen-3-ol was decreased
B5	the intensity of response to 1-octen-3-ol was decreased	–
B6	the intensity of response to 1-octen-3-ol was decreased	–
